Article PMC6838084

Tests used:
[1] = molecular target: soluble C-terminal deletion mutant of human α2δ-1 with an N-terminal double strep II-tag (α2δ-1S NTST) (human); assay: ELISA; ELISA-style titration; α2δ-1S NTST (20 µg/ml) coated; TSP-4 11-1,505 nM; TBS pH 7.4 + 1 mM Ca2+; RT; apparent KD
[2] = molecular target: soluble C-terminal deletion mutant of human α2δ-1 with an N-terminal double strep II-tag (α2δ-1S NTST) (human); assay: ELISA; ELISA-style titration; α2δ-1S NTST (20 µg/ml) coated; TSP-4 11-1,505 nM; TBS pH 7.4 without Ca2+; RT; apparent KD
[3] = molecular target: α2 peptide chain of human α2δ-1 with an N-terminal double strep II-tag (α2 NTST) (human); assay: ELISA; ELISA-style ligand binding assay; α2δ-1S NTST (20 or 10 µg/ml) or α2 NTST (10 µg/ml) coated on 96-well plates; soluble TSP at a single concentration of 1,000 nM; TBS pH 7.4 with 1 mM Ca2+; 2 h at RT; detection with TSP-specific antibody/antiserum (Fig. 3A, 3C)

Chain of thrombospondin-4 (TSP-4), recombinant full-length rat, N-terminal double strep II-tag (P49744 43-980): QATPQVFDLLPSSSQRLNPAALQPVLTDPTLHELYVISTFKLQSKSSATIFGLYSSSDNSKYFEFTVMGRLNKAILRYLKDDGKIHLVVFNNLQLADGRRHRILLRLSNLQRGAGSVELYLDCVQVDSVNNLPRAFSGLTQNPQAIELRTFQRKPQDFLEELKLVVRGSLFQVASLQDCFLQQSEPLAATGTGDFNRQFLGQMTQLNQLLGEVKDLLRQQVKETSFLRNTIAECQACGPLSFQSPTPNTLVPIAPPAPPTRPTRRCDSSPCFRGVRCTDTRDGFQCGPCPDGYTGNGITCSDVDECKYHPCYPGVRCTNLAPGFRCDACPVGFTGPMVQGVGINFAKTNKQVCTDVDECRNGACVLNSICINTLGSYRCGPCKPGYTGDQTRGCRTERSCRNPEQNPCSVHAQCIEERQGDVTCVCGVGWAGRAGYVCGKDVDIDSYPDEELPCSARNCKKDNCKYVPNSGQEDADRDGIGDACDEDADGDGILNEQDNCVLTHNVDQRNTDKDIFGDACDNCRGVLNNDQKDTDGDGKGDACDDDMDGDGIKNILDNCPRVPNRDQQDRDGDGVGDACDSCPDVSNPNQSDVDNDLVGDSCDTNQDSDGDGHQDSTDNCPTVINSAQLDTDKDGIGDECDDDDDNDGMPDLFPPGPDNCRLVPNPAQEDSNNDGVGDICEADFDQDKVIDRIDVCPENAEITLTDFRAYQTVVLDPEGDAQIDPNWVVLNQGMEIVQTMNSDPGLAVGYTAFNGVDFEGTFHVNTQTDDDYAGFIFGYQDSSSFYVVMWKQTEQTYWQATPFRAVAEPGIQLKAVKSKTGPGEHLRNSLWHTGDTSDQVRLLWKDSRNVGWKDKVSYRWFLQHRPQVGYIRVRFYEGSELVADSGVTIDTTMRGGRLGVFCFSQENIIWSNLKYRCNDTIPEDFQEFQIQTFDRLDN

Kd [1]: 153 nM | Kd [2]: 198 nM | fold change of the binding signal against α2δ-1S NTST [3]: 2 fold
Substance: thrombospondin-4 (TSP-4), recombinant full-length rat, N-terminal double strep II-tag (from UniProt P49744 43-980) (natural protein)
